In assay [1] the target is T1, VEGF (UniProt P15692-4 27-191). The experiment in a line: Biacore SPR, chimera immobilised. The method, then:
(§1) Biacore binding was performed at David Myszka's laboratory at the University of Utah or at the Genomic Research Center at Academia Sinica. Surfaces of binding protein chimera were made via chemical immobilization on a CM4 chip using standard amine coupling chemistry. […] Excess surface carboxyl activated sites on all four flow cells was blocked using the doubly positively charged species ethylenediamine. Binding experiments (but not immobilizations) in HBS-P (10 mM HEPES pH 7.4, 150 mM NaCl, 0.05% P20), The HBS-P was supplemented with BSA at 0.2 mg/mL, or HBS-P was supplemented with 500 mM NaCl (650 mM NaCl, final concentration). Analytes were also reconstituted in the corresponding buffer. All experiments were performed at 25° C. 1/150 dilutions of phosphoric acid were used to regenerate IGFBP3-Fc surfaces and a sequence of 3 M MgCl₂ followed by 5 M GuCl was used to regenerate surfaces immobilized with growth factor. Dissociation constants reported below used immobilized binding protein unless noted. Differences between binding constants may be expected between growth factor immobilization and chimera immobilization.
(§2) We selected his3t33Fc and chimera A for further analysis and examined their growth factor binding by Biacore and ELISA competition assays.

The target of the next assay is T2, VEGF-B (UniProt P49765-2 22-188).
T2 sequence (looked up): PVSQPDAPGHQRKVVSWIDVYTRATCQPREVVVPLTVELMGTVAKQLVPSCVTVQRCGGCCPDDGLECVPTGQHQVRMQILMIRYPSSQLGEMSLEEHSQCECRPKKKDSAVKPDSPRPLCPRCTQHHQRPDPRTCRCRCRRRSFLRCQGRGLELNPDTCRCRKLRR
The experiment in a line: Biacore SPR, chimera immobilised. The method, then: as §1, §2

For a further assay, the target named is TGF-α (UniProt P01135 40-89). The experiment in a line: Biacore SPR, chimera immobilised. The method, then:
as §1, §2

For a further assay, the target named is mIGF-2 (UniProt P09535 25-91). The experiment in a line: Biacore SPR, chimera immobilised. The method, then:
as §1, §2

In a further assay the target is IGF-2 (UniProt P01344 25-91). The experiment in a line: Biacore SPR, chimera immobilised. The method, then: as §1, §2
For assay [2], the target named is T3, IGF-1 (UniProt P05019 49-118).
T3 construct: Biotinylated IGF-1 is written as the same molecule; also called biotinylated IGF-1; IGF-1-bio
The experiment in a line: Biacore SPR, chimera immobilised. The method, then:
as §1, §2

In assay [3] the target is T4, nrgbx (UniProt Q02297-6 2-246, limits assumed).
T4 construct: also called neuregulin
T4 sequence (looked up): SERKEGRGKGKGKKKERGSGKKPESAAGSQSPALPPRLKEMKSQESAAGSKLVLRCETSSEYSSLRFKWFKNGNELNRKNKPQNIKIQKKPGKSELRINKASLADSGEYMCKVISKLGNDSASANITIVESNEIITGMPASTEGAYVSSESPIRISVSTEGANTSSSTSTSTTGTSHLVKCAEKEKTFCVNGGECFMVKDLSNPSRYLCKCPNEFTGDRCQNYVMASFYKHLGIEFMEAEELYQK
The experiment in a line: Biacore SPR, chimera immobilised. The method, then:
as §1, §2

The target of a further assay is mIGF-1 (UniProt P05017 49-118). The experiment in a line: Biacore SPR, chimera immobilised. The method, then:
as §1, §2

Assay [4] addresses T3, IGF-1. The experiment in a line: biotinylated IGF-1 ELISA on Fc-captured chimera, after overnight in MCF-7 conditioned medium at 37 C, against the 4 C PBS control; experiment 4-81. The method, then:
(§3) Plates were coated with goat anti-human Fc antibody, blocked and then incubated with chimera as in the Fc ELISA. Biotinylated IGF-1 (GroPep) or VEGF-Biotin (R&D Systems VEGF biotinylated with sulfo-NHS-LC-biotin as per instructions (Pierce) was added for 2 hours followed by streptavidin-HRP (Jackson Immunoresearch) for 30 minutes. Chromogenic development with tetramethyl benzidine was performed as described above.
(§4) To test the stability of the present chimeras, some purified chimeras (see, Table 4) were incubated with PBS or a conditioned medium from the MCF-7 cell line overnight at 37° C. and PBS overnight at 4° C. The IGF-1 binding and VEGF binding were measured using the biotinylated IGF-1 and VEGF.

Assay [5] addresses T3, IGF-1. The experiment in a line: biotinylated IGF-1 ELISA on Fc-captured chimera, after overnight in MCF-7 conditioned medium at 37 C, against the 4 C PBS control; experiment 3-192. The method, then: as §3, §4
In assay [6] the target is T3, IGF-1. The experiment in a line: biotinylated IGF-1 ELISA on Fc-captured chimera, 4 C PBS control (the reference); experiment 4-81. The method, then:
as §3, §4

Assay [7] concerns the target T5, bFGF (UniProt P09038 143-288, limits assumed).
T5 construct: also called basic fibroblast growth factor
The experiment in a line: Biacore SPR, growth factor immobilised; growth factor immobilised.

Assay [8] has as its target T3, IGF-1. The experiment in a line: biotinylated IGF-1 ELISA on Fc-captured chimera, 4 C PBS control (the reference); experiment 3-192. The method, then: as §3, §4
Assay [9] addresses T3, IGF-1. The experiment in a line: biotinylated IGF-1 ELISA on Fc-captured chimera, after overnight in PBS at 37 C, against the 4 C PBS control; experiment 4-81. The method, then:
as §3, §4

For assay [10], the target named is T3, IGF-1. The experiment in a line: biotinylated IGF-1 ELISA on Fc-captured chimera, after overnight in PBS at 37 C, against the 4 C PBS control; experiment 3-192. The method, then: as §3, §4
For assay [11], the target named is T3, IGF-1. The experiment in a line: Biacore SPR; experiment 4-79. The method, then:
as §1

Another assay deals with T6, HGF (UniProt P14210 32-728).
T6 construct: also called hepatocyte growth factor
The experiment in a line: Biacore SPR, growth factor immobilised. The method, then:
as §1, §2

The target in assay [12] is T5, bFGF. The experiment in a line: Biacore SPR, immobilised bFGF; experiment 4-79. The method, then:
as §1

The target in the next assay is T7, PIGF (UniProt P49763-2 21-149).
T7 construct: also called placental growth factor
T7 sequence (looked up): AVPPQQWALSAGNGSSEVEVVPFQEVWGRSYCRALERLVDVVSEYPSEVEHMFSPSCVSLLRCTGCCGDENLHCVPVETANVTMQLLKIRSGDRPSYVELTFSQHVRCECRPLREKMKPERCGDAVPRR
The experiment in a line: Biacore SPR, chimera immobilised. The method, then:
as §1, §2

In assay [13] the target is T4, nrgbx. The experiment in a line: cell-based or functional assay.
Assay [14] deals with T3, IGF-1. The experiment in a line: SPR, without VEGF; absence of VEGF. The method, then:
as §1
(§5) To further examine the nature of the VEGF and IGF binding to chimera A, simultaneous binding was examined using the surface plasmon resonance.

The target in assay [15] is T3, IGF-1. The experiment in a line: SPR, in the presence of 3 nM VEGF; presence of 3 nM VEGF. The method, then: as §1, §5
Assay [16] deals with T5, bFGF. The experiment in a line: Biacore SPR, growth factor immobilised. The method, then: as §1, §2
In assay [17] the target is T1, VEGF. The experiment in a line: Biacore SPR, chimera immobilised; footnote: the kd is very low and difficult to measure. The method, then:
as §1, §2

Assay [18] has as its target T3, IGF-1. The experiment in a line: cell-based or functional assay.

T5 sequence (P09038 143-288 limits assumed): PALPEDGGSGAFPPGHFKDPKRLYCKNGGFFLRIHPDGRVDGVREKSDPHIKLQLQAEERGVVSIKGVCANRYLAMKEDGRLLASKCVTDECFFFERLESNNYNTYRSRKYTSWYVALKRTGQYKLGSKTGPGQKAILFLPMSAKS
T3 sequence (P05019 49-118 limits assumed): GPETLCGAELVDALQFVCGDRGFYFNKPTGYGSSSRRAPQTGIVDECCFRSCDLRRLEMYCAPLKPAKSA
T1 sequence (P15692 other isoform, or with tags, fused parts or gaps limits assumed): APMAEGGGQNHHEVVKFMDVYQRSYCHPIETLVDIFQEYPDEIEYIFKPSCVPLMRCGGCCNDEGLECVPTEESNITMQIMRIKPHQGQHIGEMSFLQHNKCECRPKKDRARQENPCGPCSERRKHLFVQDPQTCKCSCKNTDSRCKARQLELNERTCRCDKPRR
Sequence of TGF-α (P01135 40-89 limits assumed): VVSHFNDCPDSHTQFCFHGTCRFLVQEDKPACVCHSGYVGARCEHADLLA
Sequence of IGF-2 (P01344 25-91 limits assumed): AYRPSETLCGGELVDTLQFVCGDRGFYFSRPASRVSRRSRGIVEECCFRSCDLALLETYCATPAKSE
T6 sequence (P14210 32-728 limits assumed): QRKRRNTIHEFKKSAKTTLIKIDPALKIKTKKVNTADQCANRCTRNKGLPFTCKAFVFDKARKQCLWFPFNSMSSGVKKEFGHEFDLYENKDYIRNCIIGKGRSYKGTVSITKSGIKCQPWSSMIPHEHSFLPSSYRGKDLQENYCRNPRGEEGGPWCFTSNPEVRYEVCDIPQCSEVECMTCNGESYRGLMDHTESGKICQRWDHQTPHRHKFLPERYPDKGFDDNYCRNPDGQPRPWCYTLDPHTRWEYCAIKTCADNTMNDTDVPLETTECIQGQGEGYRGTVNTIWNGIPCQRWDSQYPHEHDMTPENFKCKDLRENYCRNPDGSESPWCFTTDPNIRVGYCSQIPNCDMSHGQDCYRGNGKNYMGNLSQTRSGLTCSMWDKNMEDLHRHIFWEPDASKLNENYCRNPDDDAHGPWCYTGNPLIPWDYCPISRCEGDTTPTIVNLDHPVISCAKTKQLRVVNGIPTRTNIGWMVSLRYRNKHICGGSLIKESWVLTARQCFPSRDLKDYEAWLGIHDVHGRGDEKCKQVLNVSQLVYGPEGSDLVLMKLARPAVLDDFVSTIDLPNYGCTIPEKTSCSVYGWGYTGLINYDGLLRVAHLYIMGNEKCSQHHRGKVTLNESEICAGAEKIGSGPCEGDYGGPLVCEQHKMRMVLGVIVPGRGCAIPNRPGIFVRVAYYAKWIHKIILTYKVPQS
Sequence of mIGF-1 (P05017 49-118 limits assumed): as the sequence (P05019 49-118 limits assumed) above, with D20P, S35I, A67T, S69A counted along it
Sequence of mIGF-2 (P09535 25-91 limits assumed): as the sequence (P01344 25-91 limits assumed) above, with R3G, S5G, G22S, A32S, V35A, S36N counted along it

B1: IGFBP3-Fc-1 (Fc fusion)
chain: GASSAGLGPVVRCEPCDARALAQCAPPPAVCAELVREPGCGCCLTCALSEGQPCGIYTERCGSGLRCQPSPDEARPLQALLDGRGLCVNASAVSKGHAKDSQRYKVDYESQSTDTQNFSSESKRETEYGPCRREMEDTLNHLKFLNVLSPRGVHIPNCDKKGFYKKKQCRPSKGRKRGFCWCVDKYGQPLPGYTTKGKEDVHCYSMQSKVECPPCPAPPVAGPSVFLFPPKPKDQLMISRTPEVTCVVVDVSHEDPEVKFNWYVDGVEVHNAKTKPREEQYNSTYRVVSVLTVLHQDWLNGKEYKCKVSNKGLPSSIEKTISKAKGQPREPQVYTLPPSREEMTKNQVSLTCLVKGFYPSDIAVEWESNGQPENNYKTTPPVLDSDGSFFLYSKLTVDKSRWQQGNVFSCSVMHEGLHNHYTQKSLSLSPGK
notes: IGFBP3 with IGFBP3 linker deletion 1 (55 amino acids deleted from the linker region), fused to Fc; dimeric; also called h3t33fc; his3t33fc
For the molecule B1, the binding result in the assay with VEGF [1] and with TGF-α was “no binding” throughout. For the same molecule, the dissociation constant (Kd) came out at 3 nM with VEGF-B; 0.14 nM with mIGF-2; 0.174 nM in the assay with IGF-2; 0.161 nM in the assay with IGF-1 [2]; 5.98 nM with nrgbx [3]; 0.21 nM with mIGF-1. The Kd with bFGF [7] was 13 nM; in the assay with IGF-1 [11], 0.575 nM; with HGF, 0.608 nM; with bFGF [12], 13.3 nM. Also, the “IGF-1 binding remaining over controls” value with IGF-1 [4] turned out to be 51%; with IGF-1 [5], 54%; in the assay with IGF-1 [6], 100%; with IGF-1 [8], 100%; with IGF-1 [9] it was 101%; with IGF-1 [10], 99%.

B2: IGFBP3-Fc-VEGF-1 (Fc fusion)
chain: GASSAGLGPVVRCEPCDARALAQCAPPPAVCAELVREPGCGCCLTCALSEGQPCGIYTERCGSGLRCQPSPDEARPLQALLDGRGLCVNASAVSKGHAKDSQRYKVDYESQSTDTQNFSSESKRETEYGPCRREMEDTLNHLKFLNVLSPRGVHIPNCDKKGFYKKKQCRPSKGRKRGFCWCVDKYGQPLPGYTTKGKEDVHCYSMQSKAPPAPGNASESEEDRSAGIYIFISDTGRPFVEMYSEIPEIIHMTEGRELVIPCRVTSPNITVTLKKFPLDTLIPDGKRIIWDSRKGFIISNATYKEIGLLTCEATVNGHLYKTNYLTHRQGYRIYDVVLSPSHGIELSVGEKLVLNCTARTELNVGIDFNWEYPSSKHQHKKLVNRDLKTQSGSEMKKFLSTLTIDGVTRSDQGLYTCAASSGLMTKKNSTFVRVHEKVECPPCPAPPVAGPSVFLFPPKPKDQLMISRTPEVTCVVVDVSHEDPEVKFNWYVDGVEVHNAKTKPREEQYNSTYRVVSVLTVLHQDWLNGKEYKCKVSNKGLPSSIEKTISKAKGQPREPQVYTLPPSREEMTKNQVSLTCLVKGFYPSDIAVEWESNGQPENNYKTTPPVLDSDGSFFLYSKLTVDKSRWQQGNVFSCSVMHEGLHNHYTQKSLSLSPGK
notes: IGFBP3 with linker deletion 1 - gly 3 linker - v1v2 (VEGFR1 domain 2, VEGFR2 domain 3) - Fc; dimeric; also called chimera A; chimeraA
For B2, the Kd in the assay with PIGF was determined as 0.999 nM; with VEGF-B, 0.5 nM; in the assay with TGF-α it was 9250 nM; with mIGF-2, 0.0513 nM; with IGF-2 it was 0.0389 nM; with IGF-1 [2], 0.0245 nM. For the same molecule, the equilibrium dissociation constant (Kd) came to 4.88 nM with nrgbx [3]; 0.137 nM with mIGF-1; 0.4 nM with IGF-1 [14]; 0.2 nM in the assay with IGF-1 [15]; 0.0218 nM in the assay with HGF; 1.92 nM in the assay with bFGF [16]. In the assay with VEGF [17], this molecule showed a Kd of 0.0038 nM. The “IGF-1 binding remaining over controls” value worked out at 77% in the assay with IGF-1 [5], 100% with IGF-1 [8] and 94% with IGF-1 [10]. Further, in the assay with nrgbx [13], the “IC50 in inhibiting neuregulin-induced proliferation” value is 47 nM.

B3: IGFBP3-Fc-3 (Fc fusion)
chain: GASSAGLGPVVRCEPCDARALAQCAPPPAVCAELVREPGCGCCLTCALSEGQPCGIYTERCGSGLRCQPSPDEARPLQALLDGRGLCVNASAVSRPAPPAPGNASESEEDRSAGSVESPSVSSTHRVSDPKFHPKGHAKVDYESQSTDTQNFSSESKRETEYGPCRREMEDTLNHLKFLNVLSPRGVHIPNCDKKGFYKKKQCRPSKGRKRGFCWCVDKYGQPLPGYTTKGKEDVHCYSMQSKVECPPCPAPPVAGPSVFLFPPKPKDQLMISRTPEVTCVVVDVSHEDPEVKFNWYVDGVEVHNAKTKPREEQYNSTYRVVSVLTVLHQDWLNGKEYKCKVSNKGLPSSIEKTISKAKGQPREPQVYTLPPSREEMTKNQVSLTCLVKGFYPSDIAVEWESNGQPENNYKTTPPVLDSDGSFFLYSKLTVDKSRWQQGNVFSCSVMHEGLHNHYTQKSLSLSPGK
notes: IGFBP3 with IGFBP3 linker deletion 3, fused to Fc; dimeric; also called 3(del3)3; 3(del3)3Fc
In the case of B3, the figures for the “IGF-1 binding remaining over controls” value in the assay with IGF-1 [4], with IGF-1 [6] and with IGF-1 [9] were 49%, 100% and 84%, respectively. The “EC50 in inhibiting IGF-1 induced proliferation of hep3B cells” value with IGF-1 [18] was 21 nM. Moreover, the “IC50 in inhibiting neuregulin-induced proliferation” value in the assay with nrgbx [13] turned out to be 80 nM. The Kd with IGF-1 [11] turned out to be 0.371 nM; in the assay with bFGF [12], 3.44 nM.

Values taken from patent publication US20190359666A1 (ACADEMIA SINICA, published 2019).
